{
  "source": "patent US20190153059A1",
  "about": "(ADEPTHERA, published 2019)",
  "experiment_in_all_cases": "cell-based or functional assay",
  "key": {"[1]": {"target": "T1, CLR/RAMP2 receptor (UniProt Q16602 23-461; O60895 43-175, limits assumed)", "T1 sequence (Q16602 23-461 limits assumed, chain 1 of 2)": "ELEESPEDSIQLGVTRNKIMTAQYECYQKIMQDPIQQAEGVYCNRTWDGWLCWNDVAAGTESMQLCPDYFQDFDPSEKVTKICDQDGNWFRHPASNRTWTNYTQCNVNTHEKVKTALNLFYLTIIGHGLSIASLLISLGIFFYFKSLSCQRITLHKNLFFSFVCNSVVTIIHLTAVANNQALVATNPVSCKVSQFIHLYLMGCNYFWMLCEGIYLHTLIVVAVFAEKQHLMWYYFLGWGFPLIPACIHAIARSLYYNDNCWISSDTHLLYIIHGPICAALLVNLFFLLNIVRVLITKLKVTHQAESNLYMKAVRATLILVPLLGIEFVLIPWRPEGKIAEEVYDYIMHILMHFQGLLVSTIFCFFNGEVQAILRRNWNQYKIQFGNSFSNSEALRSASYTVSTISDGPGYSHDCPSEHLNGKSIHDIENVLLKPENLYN", "T1 sequence (O60895 43-175 limits assumed, chain 2 of 2)": "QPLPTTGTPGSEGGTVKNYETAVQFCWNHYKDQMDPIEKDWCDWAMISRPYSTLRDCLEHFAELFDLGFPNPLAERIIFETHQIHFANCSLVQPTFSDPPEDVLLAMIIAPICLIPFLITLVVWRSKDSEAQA"}, "[2]": {"target": "T2, CLR/RAMP1 receptor (UniProt Q16602 23-461; O60894 27-148, limits assumed)", "T2 sequence (Q16602 23-461 limits assumed, chain 1 of 2)": "as the sequence (Q16602 23-461 limits assumed, chain 1 of 2) above", "T2 sequence (O60894 27-148 limits assumed, chain 2 of 2)": "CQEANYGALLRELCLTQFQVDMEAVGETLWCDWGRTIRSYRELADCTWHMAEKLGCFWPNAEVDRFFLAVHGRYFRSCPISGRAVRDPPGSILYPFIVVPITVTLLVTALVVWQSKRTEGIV"}, "[3]": {"target": "T1, CLR/RAMP2 receptor", "remark": "listed apart in the source"}, "[4]": {"target": "T3, CLR/RAMP3 receptor (UniProt Q16602 23-461; O60896 24-148, limits assumed)", "T3 sequence (Q16602 23-461 limits assumed, chain 1 of 2)": "as the sequence (Q16602 23-461 limits assumed, chain 1 of 2) above", "T3 sequence (O60896 24-148 limits assumed, chain 2 of 2)": "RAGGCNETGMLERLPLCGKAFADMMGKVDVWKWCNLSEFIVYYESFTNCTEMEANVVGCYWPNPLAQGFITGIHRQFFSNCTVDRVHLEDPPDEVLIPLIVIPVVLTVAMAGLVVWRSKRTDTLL"}, "[5]": {"target": "T2, CLR/RAMP1 receptor", "remark": "listed apart in the source"}, "[6]": {"target": "T1, CLR/RAMP2 receptor", "remark": "listed apart in the source"}, "[7]": {"target": "T2, CLR/RAMP1 receptor", "remark": "listed apart in the source"}, "[8]": {"target": "neurotensin receptor 1 (NTSR1) (UniProt P30989 1-418, limits assumed)", "sequence (P30989 whole entry)": "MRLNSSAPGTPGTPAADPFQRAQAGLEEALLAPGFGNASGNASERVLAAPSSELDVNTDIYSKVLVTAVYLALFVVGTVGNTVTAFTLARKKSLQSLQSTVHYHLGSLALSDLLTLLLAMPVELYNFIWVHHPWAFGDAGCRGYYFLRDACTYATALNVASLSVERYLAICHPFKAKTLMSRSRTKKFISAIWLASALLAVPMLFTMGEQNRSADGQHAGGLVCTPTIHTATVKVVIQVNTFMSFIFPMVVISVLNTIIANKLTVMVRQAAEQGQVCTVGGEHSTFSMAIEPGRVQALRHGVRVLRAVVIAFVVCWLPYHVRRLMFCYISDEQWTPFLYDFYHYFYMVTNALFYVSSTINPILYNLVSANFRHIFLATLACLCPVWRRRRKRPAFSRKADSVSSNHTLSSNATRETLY"}, "[9]": {"target": "T3, CLR/RAMP3 receptor", "remark": "listed apart in the source"}},
  "note": "Read-outs that look alike come from different tables or passages of the source. * marks the point of attachment. Palmitoyl = CCCCCCCCCCCCCCCC(=O)*; miniPEG = mini-PEG spacer unit",
  "data": [
    {"binder": "Palmitoyl-GCRFGTCTVQKLAHQIYQFTDKDKDNSAPVDPSSPHSY-NH2 (ends and bridges not checked)", "note": "[SEQ ID NO: 45]", "values": [
      {"measurement": "CLR/RAMP2 EC50", "setting": "[1]", "result": 0.3, "unit": "nM"},
      {"measurement": "CLR/RAMP1 EC50", "setting": "[2]", "result": 0.1, "unit": "nM"}
    ]},
    {"binder": "Palmitoyl-KVQKLAHQIYQFTDKDVAPRSKISPQGY-NH2", "note": "[SEQ ID NO: 119]", "values": [
      {"measurement": "CLR/RAMP2 IC50", "setting": "[3]", "result": 0.6, "unit": "nM"},
      {"measurement": "CLR/RAMP3 IC50", "setting": "[4]", "result": 1.5, "unit": "nM"},
      {"measurement": "CLR/RAMP1 IC50", "setting": "[5]", "result": 21, "unit": "nM"}
    ]},
    {"binder": "YAGFLKVQKLSAPVDPSSPHSY (Ace- at N-terminus; (D-Ala) and (D-Leu) in Y(D-Ala)GF(D-Leu); miniPEG before K(Pal); K(Pal); -NH2)", "note": "[SEQ ID NO: 145]", "values": [
      {"measurement": "CLR/RAMP1 IC50", "setting": "[5]", "result": "< 0.5", "unit": "nM"},
      {"measurement": "CLR/RAMP1 Max Activity (antagonist)", "setting": "[5]", "result": "99 % of positive control"}
    ]},
    {"binder": "Palmitoyl-KVQNLSAPVDPSSPHSY-NH2", "note": "[SEQ ID NO: 141]", "values": [
      {"measurement": "CLR/RAMP2 Max Activity (antagonist)", "setting": "[3]", "result": "14 % of positive control"},
      {"measurement": "CLR/RAMP1 Max Activity (antagonist)", "setting": "[5]", "result": "43 % of positive control"}
    ]},
    {"binder": "Ace-TVQKLAHRLWQLMGPDKDNVAPRSKISPQGY-NH2", "note": "[SEQ ID NO: 116]", "values": [
      {"measurement": "CLR/RAMP2 IC50", "setting": "[3]", "result": 7.3, "unit": "nM"},
      {"measurement": "CLR/RAMP3 IC50", "setting": "[4]", "result": 53, "unit": "nM"},
      {"measurement": "CLR/RAMP1 IC50", "setting": "[5]", "result": 152, "unit": "nM"}
    ]},
    {"binder": "Palmitoyl-KVQKLAHQISAPVDPSSPHSY-NH2", "note": "[SEQ ID NO: 123]", "values": [
      {"measurement": "CLR/RAMP2 IC50", "setting": "[3]", "result": 50, "unit": "nM"},
      {"measurement": "CLR/RAMP1 IC50", "setting": "[5]", "result": 4.7, "unit": "nM"}
    ]},
    {"binder": "Palmitoyl-KTKKTLRTGCRFGTCTVQKLAHQIYQFTDKDKDNVAPVDPSSPHSY-NH2 (ends and bridges not checked)", "note": "[SEQ ID NO: 40]", "values": [
      {"measurement": "CLR/RAMP2 EC50", "setting": "[1]", "result": 1, "unit": "nM"},
      {"measurement": "CLR/RAMP1 EC50", "setting": "[2]", "result": 2, "unit": "nM"}
    ]},
    {"binder": "MiniPEG-KVQKLAHQIYSAPVDPSSPHSY-NH2 (also: K(Pal), Lys not given here)", "note": "[SEQ ID NO: 114]", "values": [
      {"measurement": "CLR/RAMP2 IC50", "setting": "[3]", "result": 146, "unit": "nM"},
      {"measurement": "CLR/RAMP3 IC50", "setting": "[4]", "result": 8.4, "unit": "nM"},
      {"measurement": "CLR/RAMP1 IC50", "setting": "[5]", "result": 4.8, "unit": "nM"}
    ]},
    {"binder": "Pal-KVQKLAHQSAPVDPSSPHSY-NH2", "note": "[SEQ ID NO: 124]", "values": [
      {"measurement": "CLR/RAMP2 Max Activity (antagonist)", "setting": "[3]", "result": "103 % of positive control"},
      {"measurement": "CLR/RAMP3 Max Activity (antagonist)", "setting": "[4]", "result": "102 % of positive control"},
      {"measurement": "CLR/RAMP1 Max Activity (antagonist)", "setting": "[5]", "result": "95 % of positive control"}
    ]},
    {"binder": "miniPEG-K(Palmitoyl)VQKLAHQIYQFTDKDKDNSAPVDPSSPHSY-NH2", "note": "[SEQ ID NO: 78]", "values": [
      {"measurement": "CLR/RAMP2 IC50", "setting": "[3]", "result": 34, "unit": "nM"},
      {"measurement": "CLR/RAMP2 Max Activity (antagonist)", "setting": "[3]", "result": "107 % of positive control"},
      {"measurement": "CLR/RAMP3 IC50", "setting": "[4]", "result": 0.8, "unit": "nM"},
      {"measurement": "CLR/RAMP3 Max Activity (antagonist)", "setting": "[4]", "result": "101 % of positive control"},
      {"measurement": "CLR/RAMP1 IC50", "setting": "[5]", "result": 4.8, "unit": "nM"},
      {"measurement": "CLR/RAMP1 Max Activity (antagonist)", "setting": "[5]", "result": "104 % of positive control"}
    ]},
    {"binder": "XRPRLSHKGPLPFKGCRFGTCTVQKLAHQIYQFTDKDVAPRSKISPQGY (not fully specified; (Glp) at N-terminus; (Nle) in RPRLSHKGP(Nle)PF; miniPEG before K(PAL); K(PAL); -NH2)", "note": "[AGTRL1 and CLR/RAMP agonist MRL (SEQ ID NO: 228)]", "values": [
      {"measurement": "CLR/RAMP2 EC50", "setting": "[6]", "result": 2, "unit": "nM"},
      {"measurement": "CLR/RAMP2 Max Activity", "setting": "[6]", "result": "74 % of positive controls"},
      {"measurement": "CLR/RAMP1 EC50", "setting": "[7]", "result": 0.6, "unit": "nM"},
      {"measurement": "CLR/RAMP1 Max Activity", "setting": "[7]", "result": "130 % of positive controls"}
    ]},
    {"binder": "Ace-VTHRLAGLLSRFTDKDKDNVAPRSKISPQGY-NH2", "note": "[SEQ ID NO: 115]", "values": [
      {"measurement": "CLR/RAMP2 IC50", "setting": "[3]", "result": 117, "unit": "nM"},
      {"measurement": "CLR/RAMP3 IC50", "setting": "[4]", "result": 115, "unit": "nM"},
      {"measurement": "CLR/RAMP1 IC50", "setting": "[5]", "result": 1880, "unit": "nM"}
    ]},
    {"binder": "Ac-TVQKLAHQIYQFTDKDKDNSAPVDPSSPHSY-NH2", "note": "[SEQ ID NO: 76]", "values": [
      {"measurement": "CLR/RAMP2 IC50", "setting": "[3]", "result": 289, "unit": "nM"},
      {"measurement": "CLR/RAMP1 IC50", "setting": "[5]", "result": 1120, "unit": "nM"}
    ]},
    {"binder": "Ac-TK(Palmitoyl)KTLRTGCRFGTCTVQKLAHQIYQFTDKDKDNVAPVDPSSPHSY-NH2 (ends and bridges not checked)", "note": "[SEQ ID NO: 41]", "values": [
      {"measurement": "CLR/RAMP2 EC50", "setting": "[1]", "result": 0.9, "unit": "nM"},
      {"measurement": "CLR/RAMP1 EC50", "setting": "[2]", "result": 0.4, "unit": "nM"}
    ]},
    {"binder": "XLYENKPRRPYILKVQKLSAPVDPSSPHSY (not fully specified; Pyr(glu)- at N-terminus; miniPEG between LYENKPRRPYIL and K(Pal); K(Pal); -NH2)", "note": "[NTSR1 agonist and CLR/RAMP antagonist MRL (SEQ ID NO: 224)]", "values": [
      {"measurement": "CLR/RAMP2 IC50", "setting": "[6]", "result": 1.5, "unit": "nM"},
      {"measurement": "CLR/RAMP2 Max Activity (antagonist)", "setting": "[6]", "result": "100 % of positive controls"},
      {"measurement": "CLR/RAMP1 IC50", "setting": "[7]", "result": "< 0.5", "unit": "nM"},
      {"measurement": "CLR/RAMP1 Max Activity (antagonist)", "setting": "[7]", "result": "99 % of positive controls"},
      {"measurement": "NTSR1 EC50 (calcium flux assay)", "setting": "[8]", "result": 26, "unit": "nM"},
      {"measurement": "NTSR1 Max Activity", "setting": "[8]", "result": "57 % of positive controls"}
    ]},
    {"binder": "Palmitoyl-KGCRFGTCTVQKLAHQIYQFTDKDVAPRSKISPQGY-NH2 (ends and bridges not checked)", "note": "[SEQ ID NO: 103]", "values": [
      {"measurement": "CLR/RAMP2 EC50", "setting": "[1]", "result": 0.7, "unit": "nM"},
      {"measurement": "CLR/RAMP3 EC50", "setting": "[9]", "result": 0.3, "unit": "nM"},
      {"measurement": "CLR/RAMP1 EC50", "setting": "[2]", "result": 4.5, "unit": "nM"}
    ]},
    {"binder": "FCFWKTCTKVQKLAHQIYQFTDKDVAPRSKISPQGY ((D-Phe) at position 1 and (D-Trp) in (D-Phe)CF(D-Trp)KTCT; miniPEG before K(Pal); K(Pal); -NH2)", "note": "[SSTR2 and CLR/RAMP MRL (SEQ ID NO: 218)]", "values": [
      {"measurement": "CLR/RAMP2 IC50", "setting": "[6]", "result": "< 0.5", "unit": "nM"},
      {"measurement": "CLR/RAMP2 Max Activity (antagonist)", "setting": "[6]", "result": "87 % of positive controls"},
      {"measurement": "CLR/RAMP1 IC50", "setting": "[7]", "result": 2, "unit": "nM"},
      {"measurement": "CLR/RAMP1 Max Activity (antagonist)", "setting": "[7]", "result": "102 % of positive controls"}
    ]}
  ]
}
